In this assay the target is T1, cynomolgus LAG-3 expressed on DO11.10 cells (cynomolgus monkey, UniProt P18627 24-525 (human entry)).
T1 chain: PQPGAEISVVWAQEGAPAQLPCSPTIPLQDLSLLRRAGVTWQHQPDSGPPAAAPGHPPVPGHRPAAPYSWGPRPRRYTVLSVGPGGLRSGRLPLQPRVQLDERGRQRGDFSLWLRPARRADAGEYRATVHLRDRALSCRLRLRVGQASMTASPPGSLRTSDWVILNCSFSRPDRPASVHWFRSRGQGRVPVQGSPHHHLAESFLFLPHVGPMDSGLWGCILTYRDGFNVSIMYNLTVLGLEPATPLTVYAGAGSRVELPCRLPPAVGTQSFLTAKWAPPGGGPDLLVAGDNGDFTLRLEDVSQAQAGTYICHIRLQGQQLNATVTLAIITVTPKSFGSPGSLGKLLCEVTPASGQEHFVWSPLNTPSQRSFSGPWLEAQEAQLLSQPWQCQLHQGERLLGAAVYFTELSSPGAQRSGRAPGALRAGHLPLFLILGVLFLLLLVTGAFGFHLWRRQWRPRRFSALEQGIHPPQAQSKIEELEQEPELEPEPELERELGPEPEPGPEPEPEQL
Briefly: cell-based or functional assay.

This is an account of results in patent US20190330344A1 (F STAR THERAPEUTICS, published 2019).

B1: FS18-7-9/4420LALA (anti-human LAG-3 Fcab FS18-7-9 in mock mAb^2 format comprising the LALA mutation) (bispecific antibody, human IgG1, kappa, L234A L235A)
heavy: EVKLDETGGGLVQPGRPMKLSCVASGFTFSDYWMNWVRQSPEKGLEWVAQIRNKPYNYETYYSDSVKGRFTISRDDSKSSVYLQMNNLRVEDMGIYYCTGSYYGMDYWGQGTSVTVSSASTKGPSVFPLAPSSKSTSGGTAALGCLVKDYFPEPVTVSWNSGALTSGVHTFPAVLQSSGLYSLSSVVTVPSSSLGTQTYICNVNHKPSNTKVDKKVEPKSCDKTHTCPPCPAPEAAGGPSVFLFPPKPKDTLMISRTPEVTCVVVDVSHEDPEVKFNWYVDGVEVHNAKTKPREEQYNSTYRVVSVLTVLHQDWLNGKEYKCKVSNKALPAPIEKTISKAKGQPREPQVYTLPPSWDEPWGEDVSLTCLVKGFYPSDIAVEWESNGQPENNYKTTPPVLDSDGSFFLYSKLTVPYDRWVWPDEFSCSVMHEALHNHYTQKSLSLSPG
light: DVVMTQTPLSLPVSLGDQASISCRSSQSLVHSNGNTYLRWYLQKPGQSPKVLIYKVSNRFSGVPDRFSGSGSGTDFTLKISRVEAEDLGVYFCSQSTHVPWTFGGGTKLEIKRTVAAPSVFIFPPSDEQLKSGTASVVCLLNNFYPREAKVQWKVDNALQSGNSQESVTEQDSKDSTYSLSSTLTLSKADYEKHKVYACEVTHQGLSSPVTKSFNRGEC
In the case of B1, the “EC50 of mIL-2 release, cynomolgus LAG-3 DO11.10 T cell activation assay” value is 5.6 nM.
